Data as given in paper PMC6632053, “Incorporation of Putative Helix-Breaking Amino Acids in the Design of Novel Stapled Peptides: Exploring Biophysical and Cellular Permeability Properties” (Molecules, 2019).
Bridge positions count the residues as written; N and C are the ends. Square brackets hold non-standard residues; d marks the D form. Primed or numbered codes have the meaning given here. Lys(N3) = [N-]=[N+]=NCCCC[C@H](N)C(=O)O; NMeQ = CN[C@@H](CCC(N)=O)C(=O)O; R8 = C=CCCCCCC[C@@](C)(N)C(=O)O; dCba = N[C@H](CC1CCC1)C(=O)O; S5 = C=CCCC[C@](C)(N)C(=O)O; NMeA = CN[C@@H](C)C(=O)O; Cba′ = not defined here; Aib = CC(C)(N)C(=O)O; βAla = NCCC(=O)O

Key:
human Mdm2 (1–125) [1] = target: T1, human Mdm2 (1–125) (human); assay: fluorescence polarisation; competition: unlabeled peptide titrated against the complex of 250 nM Mdm2 (1–125) and 50 nM FAM-labeled 12/1 peptide; apparent Kd from the tracer's Kd of […] nM; PBS pH 7.4, 0.1% Tween 20; triplicate; details: both partners purified
T1 construct: Mdm2, human, residues 1-125; the stretch after the TEV site ENLYFQG of the fusion protein; No cleavage of the tags is described, so it is open whether the fusion or cleaved Mdm2 stood in the FP and ITC assays; also called purified recombinant human Mdm2 protein (amino acids 1–125); source: E. coli BL21 (DE3) Rosetta T1R, purified (Ni-NTA, gel filtration)
T1 sequence (chain, as listed by the source): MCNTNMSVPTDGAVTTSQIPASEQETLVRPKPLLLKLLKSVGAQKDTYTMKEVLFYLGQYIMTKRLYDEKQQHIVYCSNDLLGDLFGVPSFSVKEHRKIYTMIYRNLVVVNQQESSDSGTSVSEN

human Mdm2 (1–125) [2] = target: T1, human Mdm2 (1–125); assay: as above; details: both partners purified; remark: listed apart in the source
human Mdm2 (1–125) [3] = target: T1, human Mdm2 (1–125); assay: cell-based or functional assay
human Mdm2 (1–125) [4] = target: T1, human Mdm2 (1–125); assay: cell-based or functional assay; remark: listed apart in the source
human Mdm2 (1–125) [5] = target: T1, human Mdm2 (1–125); assay: ITC; 100–200 µM peptide titrated into 20 µM Mdm2 (1–125), 40 injections of 1 µL (reverse titration for insoluble peptides); 1× PBS pH 7.2, 3% DMSO, 0.001% Tween-20; duplicates; details: both partners purified

Binder | Kd (human Mdm2 (1–125) [1]) [nM] | further results
Ac-LTF[R8]EY[dW]QL[Cba′][S5]SAA-NH2 (staple 4-11; reading uncertain) [W6(D-Trp) (MP-384)] | 30 | 
Ac-L[dT]F[R8]EYWQL[Cba′][S5]SAA-NH2 (staple 4-11; reading uncertain) [MP-292 T2(D-Thr)] | 136 | 
Ac-[Lys(N3)][βAla]LTF[R8]EYW[NMeA]Q[Cba′][S5]SAA-NH2 (staple 6-13; reading uncertain) [MP-081 A8(N-methyl L-Ala)] |  | Kd (human Mdm2 (1–125) [2]): 671 nM
Ac-[Lys(N3)][βAla]LTF[R8]GYWAQ[Cba′][S5]SAA-NH2 (staple 6-13; reading uncertain) [MP-081 E5G] |  | Kd (human Mdm2 (1–125) [2]): 61.8 nM
Ac-LT[dF][R8]EYWQL[Cba′][S5]SAA-NH2 (staple 4-11; reading uncertain) [MP-292 F3(D-Phe)] | 6480 | 
Ac-[Lys(N3)][βAla]LTF[R8]EYWAP[Cba′][S5]SAA-NH2 (staple 6-13; reading uncertain) [MP-081 Q9P] |  | Kd (human Mdm2 (1–125) [2]): 77.1 nM
Ac-[dL]TF[R8]EYWQL[Cba′][S5]SAA-NH2 (staple 4-11; reading uncertain) [MP-292 L1(D-Leu)] | 31 | 
Ac-LTF[R8]EYWQL[dCba][S5]SAA-NH2 (staple 4-11) [MP-292 Cba10(D-Cba)] | 1650 | 
Ac-LTF[Aib]EYWQL[Cba′][Aib]SAA-NH2 (reading uncertain) [Linear Parent (MP-189)] | 43.1 | 
Ac-LTF[R8][dE]YWQL[Cba′][S5]SAA-NH2 (staple 4-11; reading uncertain) [MP-292 E5(D-Glu)] | 32 | 
Ac-[dL]TF[Aib]EYWQL[Cba′][Aib]SAA-NH2 (reading uncertain) [Linear L1(D-Leu)] | 277 | 
Ac-[Lys(N3)][βAla]GTF[R8]EYWAQ[Cba′][S5]SAA-NH2 (staple 6-13; reading uncertain) [MP-081 L1G] |  | Kd (human Mdm2 (1–125) [2]): 22.1 nM
Ac-LTF[R8]EYWQL[Cba′][S5]SA[dA]-NH2 (staple 4-11; reading uncertain) [MP-292 A14(D-Ala)] | 18 | 
Ac-LTF[R8]EYAQL[Cba′][S5]SAA-NH2 (staple 4-11; reading uncertain) [MP-292 W7A] | 5090 | EC50, p53 responsive β-lactamase reporter in HCT116 cells (column Cellular) (human Mdm2 (1–125) [3]): 8800 nM
Ac-LTF[Aib][dE]YWQL[Cba′][Aib]SAA-NH2 (reading uncertain) [Linear E5(D-Glu)] | 135 | 
Ac-LTF[R8]EYWQ[dL][Cba′][S5]SAA-NH2 (staple 4-11; reading uncertain) [MP-292 L9(D-Leu)] | 30 | 

Binder | Kd (human Mdm2 (1–125) [1]) [nM] | further results
Ac-[Lys(N3)][βAla]LTF[R8]EYWAQ[Cba′][S5]S[NMeA]A-NH2 (staple 6-13; reading uncertain) [MP-081 A13(N-methyl L-Ala)] |  | Kd (human Mdm2 (1–125) [2]): 10 nM
Ac-[Lys(N3)][βAla]LTF[R8]EYWAG[Cba′][S5]SAA-NH2 (staple 6-13; reading uncertain) [MP-081 Q9G] |  | Kd (human Mdm2 (1–125) [2]): 42 nM
Ac-LTF[R8]EAWQL[Cba′][S5]SAA-NH2 (staple 4-11; reading uncertain) [MP-292 Y6A] | 38.9 | 
Ac-LTF[R8]EYWQL[Cba′][S5]S[dA]A-NH2 (staple 4-11; reading uncertain) [MP-292 A13(D-Ala)] | 17 | 
Ac-[Lys(N3)][βAla]LTF[R8]EYWA[NMeQ][Cba′][S5]SAA-NH2 (staple 6-13; reading uncertain) [MP-081 Q9(N-methyl L-Gln)] |  | Kd (human Mdm2 (1–125) [2]): 211 nM
Ac-LTF[R8]EYWQL[Cba′][S5]SAA-NH2 (staple 4-11; reading uncertain) [MP-292] | 18.6 | EC50, p53 responsive β-lactamase reporter in HCT116 cells, 2% serum (data not shown) (human Mdm2 (1–125) [4]): 700 nM; EC50, p53 responsive β-lactamase reporter in HCT116 cells, 10% serum (data not shown) (human Mdm2 (1–125) [4]): 4200 nM; EC50, p53 responsive β-lactamase reporter in HCT116 cells (column Cellular) (human Mdm2 (1–125) [3]): 540 nM; stoichiometry N (human Mdm2 (1–125) [5]): 1
Ac-LTF[R8]EYWAL[Cba′][S5]SAA-NH2 (staple 4-11; reading uncertain) [MP-292 Q8A] | 26.5 | 
Ac-LTF[R8]EYWQA[Cba′][S5]SAA-NH2 (staple 4-11; reading uncertain) [MP-292 L9A] | 12 | 
Ac-LTF[R8]EYW[dQ]L[Cba′][S5]SAA-NH2 (staple 4-11; reading uncertain) [MP-292 Q8(D-Gln)] | 22 | 
Ac-[Lys(N3)][βAla]LTF[R8]EYWAQ[Cba′][S5]SAA-NH2 (staple 6-13; reading uncertain) [MP-081] |  | Kd (human Mdm2 (1–125) [2]): 19 nM
Ac-LTF[Aib]EYWQ[dL][Cba′][Aib]SAA-NH2 (reading uncertain) [Linear L9(D-Leu)] | 88 | 
Ac-LTF[R8]E[dY]WQL[Cba′][S5]SAA-NH2 (staple 4-11; reading uncertain) [MP-292 Y6 (D-Tyr)] | 286 | 
Ac-[Lys(N3)][βAla]PTF[R8]EYWAQ[Cba′][S5]SAA-NH2 (staple 6-13; reading uncertain) [MP-081 L1P] |  | Kd (human Mdm2 (1–125) [2]): 21.9 nM
Ac-LTF[R8]EYWQL[Cba′][S5]AAA-NH2 (staple 4-11; reading uncertain) [MP-292 S12A] | 20.4 | 
Ac-LTF[R8]EYWQL[Cba′][S5][dS]AA-NH2 (staple 4-11; reading uncertain) [MP-292 S12(D-Ser)] | 8.6 | 
